Source: patent publication US20220017622A1 (Pfizer, published 2022)
Numbering of substitutions follows the chain as printed.

B1: B7-H4xCD3 bispecific antibody 0087 (bispecific antibody, IgG2)
heavy 1: QVQLQQWGAGLLKPSETLSLTCAVYGGSFSGYYWNWIRQPPGKGLEWIGEINHSGSTKYNPSLKSRVTISGDTSKNQFSLKLNSVTAADTAVYYCVRGLYNWNVDSWGQGTLVTVSSASTKGPSVFPLAPCSRSTSESTAALGCLVKDYFPEPVTVSWNSGALTSGVHTFPAVLQSSGLYSLSSVVTVPSSNFGTQTYTCNVDHKPSNTKVDKTVERKCEVECPECPAPPVAGPSVFLFPPKPKDTLMISRTPEVTCVVVAVSHEDPEVQFNWYVDGVEVHNAKTKPREEQFNSTFRVVSVLTVVHQDWLNGKEYKCKVSNKGLPSSIEKTISKTKGQPREPQVYTLPPSREEMTKNQVSLTCEVKGFYPSDIAVEWESNGQPENNYKTTPPMLDSDGSFFLYSKLTVDKSRWQQGNVFSCSVMHEALHNHYTQKSLSLSPG
light 1: DIQMTQSPSSLSASVGDRVTITCRASQGIRNDLGWYQQKPGKAPKRLIYVASSLQSGVPSRFSGSGSGTEFTLTISSLQPEDFATYYCLQHNSYPYTFGQGTKLEIKRTVAAPSVFIFPPSDEQLKSGTASVVCLLNNFYPREAKVQWKVDNALQSGNSQESVTEQDSKDSTYSLSSTLTLSKADYEKHKVYACEVTHQGLSSPVTKSFNRGEC
heavy 2: EVQLVESGGGLVQPGGSLRLSCAASGFTFSDYYMTWVRQAPGKGLEWVAFIRNQDRGYTSDHQPSVKGRFTISRDNAKNSLYLQMNSLRAEDTAVYYCARDRPSYYVLDYWGQGTTVTVSSASTKGPSVFPLAPCSRSTSESTAALGCLVKDYFPEPVTVSWNSGALTSGVHTFPAVLQSSGLYSLSSVVTVPSSNFGTQTYTCNVDHKPSNTKVDKTVERKCRVRCPRCPAPPVAGPSVFLFPPKPKDTLMISRTPEVTCVVVAVSHEDPEVQFNWYVDGVEVHNAKTKPREEQFNSTFRVVSVLTVVHQDWLNGKEYKCKVSNKGLPSSIEKTISKTKGQPREPQVYTLPPSREEMTKNQVSLTCLVKGFYPSDIAVEWESNGQPENNYKTTPPMLDSDGSFFLYSRLTVDKSRWQQGNVFSCSVMHEALHNHYTQKSLSLSPG
light 2: DIQMTQSPSSLSASVGDRVTITCTSDQSLFNVRSGKNYLAWYQQKPGKAPKLLIYWASDRESGVPSRFSGSGSGTDFTLTISSLQPEDFATYYCKQSYDLFTFGGGTKVEIKRTVAAPSVFIFPPSDEQLKSGTASVVCLLNNFYPREAKVQWKVDNALQSGNSQESVTEQDSKDSTYSLSSTLTLSKADYEKHKVYACEVTHQGLSSPVTKSFNRGEC
notes: Chains 1-2: B7-H4 arm; chains 3-4: CD3 arm; IgG2; also called CD3 variant 2B5v598
B2: B7-H4xCD3 bispecific antibody 0088 (bispecific antibody, IgG2)
heavy 1: B1 heavy 1
light 1: B1 light 1
heavy 2: B1 heavy 2 with D55A, Q63N, P103H
light 2: B1 light 2 with D26S, G35Q, D59T, D99Y
notes: Chains 1-2: B7-H4 arm; chains 3-4: CD3 arm; IgG2; also called CD3 variant 2B5c707

Columns and labels:
human B7-H4 on cells = molecular target: T1, human B7-H4 on cells (human, UniProt Q7Z7D3 25-282); assay: cell-based or functional assay; as to T cell mediated tumor cell killing, MDA-MB-468: unit not given here
T1 sequence (looked up): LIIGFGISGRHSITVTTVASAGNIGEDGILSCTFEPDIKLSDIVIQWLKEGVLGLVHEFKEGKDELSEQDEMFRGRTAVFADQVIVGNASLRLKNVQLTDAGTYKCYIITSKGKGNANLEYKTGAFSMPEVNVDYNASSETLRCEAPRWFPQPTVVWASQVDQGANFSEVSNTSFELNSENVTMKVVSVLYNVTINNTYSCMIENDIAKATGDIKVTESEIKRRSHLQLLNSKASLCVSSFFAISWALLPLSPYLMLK

[1] = molecular target: T2, human CD3 (delta/epsilon heterodimer) (human, UniProt P07766 23-126; P04234 22-105); assay: SPR 37 C; CD3 delta/epsilon on anti-His chip, bispecific analyte; CD3 variant 2B5v598
T2 construct: captured on an anti-His chip, so it carries a His tag; also called huCD3

[2] = molecular target: T2, human CD3 (delta/epsilon heterodimer); assay: SPR 37 C; CD3 delta/epsilon on anti-His chip, bispecific analyte; CD3 variant 2B5c707

T2 sequence (P07766 23-126, stated change not applied, chain 1 of 2): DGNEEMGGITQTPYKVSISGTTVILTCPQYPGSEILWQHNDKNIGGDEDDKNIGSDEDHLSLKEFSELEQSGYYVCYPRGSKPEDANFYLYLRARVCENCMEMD
T2 sequence (P04234 22-105, stated change not applied, chain 2 of 2): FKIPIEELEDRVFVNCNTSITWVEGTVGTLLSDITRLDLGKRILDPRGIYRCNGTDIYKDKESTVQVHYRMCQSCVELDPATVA

| Binder | T cell mediated tumor cell killing EC50, HCC1954-Luc (human B7-H4 on cells) [nM] | T cell mediated tumor cell killing, MDA-MB-468 (human B7-H4 on cells) | Kd [1] [nM] | koff [1] [s⁻¹] | kon [1] [M⁻¹ s⁻¹] | Kd [2] [nM] | koff [2] [s⁻¹] | kon [2] [M⁻¹ s⁻¹] |
| --- | --- | --- | --- | --- | --- | --- | --- | --- |
| B1 | 57 | 109 | 124 | 0.0254 | 205000 |  |  |  |
| B2 | 140 | 655 |  |  |  | 134 | 0.0689 | 511000 |
